# Test results taken from publication PMC314469, “Protein Interaction Networks by Proteome Peptide Scanning” (PLoS Biology, 2004).
# T1: Boi2 SH3 (BOI2_YEAST), P39969
# T1 chain: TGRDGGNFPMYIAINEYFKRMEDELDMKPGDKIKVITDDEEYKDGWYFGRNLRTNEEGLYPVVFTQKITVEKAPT
# T2: Boi1 SH3 (BOI1_YEAST), P38041
# T2 chain: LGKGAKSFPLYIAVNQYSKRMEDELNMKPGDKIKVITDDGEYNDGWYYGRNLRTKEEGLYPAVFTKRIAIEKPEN
# T3: Yhr016c SH3 (YSC84_YEAST), P32793
# T3 chain: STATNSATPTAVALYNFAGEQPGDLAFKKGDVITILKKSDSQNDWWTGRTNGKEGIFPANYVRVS
# T4: Rvs167 SH3 (RV167_YEAST), P39743
# T4 chain: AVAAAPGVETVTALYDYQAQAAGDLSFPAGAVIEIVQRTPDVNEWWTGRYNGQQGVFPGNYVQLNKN
# T5: Yfr024 SH3 (LSB3_YEAST), P43603
# T5 chain: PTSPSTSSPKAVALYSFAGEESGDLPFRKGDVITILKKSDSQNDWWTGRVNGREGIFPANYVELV
# B1: YJR064W 272-285 (peptide)
# chain: LTSPFEPPKPKTKH
# B2: YHL002W 144-157 (peptide)
# chain: LVQPNVPEKHNMST
# B3: YDR172W 569-582 (peptide)
# chain: LTSPKNPIKSVTKF
# B4: YBL016W 218-231 (peptide)
# chain: LRRPIFPGRDYRHQ
# B5: YFL036W 1327-1340 (peptide)
# chain: LRLPEIPPKGDFDV
# B6: YAR003W 101-114 (peptide)
# chain: LSKPSKPLKEIRFD
# B7: YER036C 368-381 (peptide)
# chain: LVQPVVPDKVFSFR
# B8: YKL216W 131-144 (peptide)
# chain: LSSPNVPGKPQVAY
# B9: YDR109C 605-618 (peptide)
# chain: LSTPSAPAKINNYS
# B10: YOR315W 23-36 (peptide)
# chain: LVIPSTPSKKSKYS
# B11: YAR068W 116-129 (peptide)
# chain: LSLPRLPNKHHWPL
# B12: YEL042W 325-338 (peptide)
# chain: LSSPSLPPKVNATN
# B13: YDR545W 312-325 (peptide)
# chain: LRSPNTPRRLRKTL
# B14: YPL115C 235-248 (peptide)
# chain: LRSPQNPNRMTAVI
# B15: YGR227W 189-202 (peptide)
# chain: LTLPFGPVKSIWLS
# Target: T1, Boi2 SH3 (BOI2_YEAST), P39969
# Assay: SPOT array
row,"normalised SPOT signal, Boehringer light units (BLU); mean over the file's lines of this peptide",Binder
1,33.7,B1
2,48.3,B2
3,25.9,B3
4,234,B4
5,78.1,B5
6,63,B6
7,52,B7
8,43.1,B8
9,37.9,B9
10,37.5,B10
11,44.9,B11
12,22,B12
13,322,B13
14,49,B14
15,41.5,B15

# Target: T2, Boi1 SH3 (BOI1_YEAST), P38041
# Assay: SPOT array
row,"normalised SPOT signal, Boehringer light units (BLU); mean over the file's lines of this peptide",Binder
1,188,B1
2,52.4,B2
3,547,B3
4,825,B4
5,1.5,B5
6,233,B6
7,124,B7
8,67.9,B8
9,18.3,B9
10,94.8,B10
11,197,B11
12,113,B12
13,236,B13
14,55.6,B14
15,5.9,B15

# Target: T3, Yhr016c SH3 (YSC84_YEAST), P32793
# Assay: SPOT array
row,"normalised SPOT signal, Boehringer light units (BLU); mean over the file's lines of this peptide",Binder
1,149,B1
2,107,B2
3,40.3,B3
4,1090,B4
5,124,B5
6,227,B6
7,370,B7
8,77.3,B8
9,144,B9
10,95.7,B10
11,2000,B11
12,92.2,B12
13,3240,B13
14,155,B14
15,297,B15

# Target: T4, Rvs167 SH3 (RV167_YEAST), P39743
# Assay: SPOT array
row,"normalised SPOT signal, Boehringer light units (BLU); mean over the file's lines of this peptide",Binder
1,8.1,B1
2,44.1,B2
3,96.1,B3
4,947,B4
5,28.8,B5
6,82.7,B6
7,63.5,B7
8,1.5,B8
9,30.6,B9
10,32.2,B10
11,252,B11
12,34.7,B12
13,2540,B13
14,20.7,B14
15,17.2,B15

# Target: T5, Yfr024 SH3 (LSB3_YEAST), P43603
# Assay: SPOT array
row,"normalised SPOT signal, Boehringer light units (BLU); mean over the file's lines of this peptide",Binder
1,82.2,B1
2,94.6,B2
3,227,B3
4,8010,B4
5,322,B5
6,586,B6
7,311,B7
8,201,B8
9,174,B9
10,627,B10
11,27100,B11
12,3210,B12
13,21100,B13
14,1210,B14
15,36.6,B15
